{
  "source": "the DeepSol protein solubility set",
  "data": [
    {"assay": "soluble on expression in E. coli; label from the status in PepcDB or PDB records", "values": [
      {"sequence": "AHHHHHHGSKVYAPATIANFGPGFDVFGLAIETPRDTVIAKESDDFRIEVEGYKVPENDENVALVAAKALFKLVGEEGGIYLKLKKGIRPKSGLGSSGASSIAGAVAAARILGVEDDEIIIRAALEGERKASGSPHGDNVVPSYYGNFTIVESLNPLRVHNIEVDFKVVVILPSVEVPTSEARKVLPKKVPLKDAVKNIALASSLVLALKEGNLEEVGRLLEDHLALPYRLSLVPWFPKVKEAAKEAGAYGVMISGSGPAVFALGENLKEIGKAMKEAFESFGIEAEYWVTKVGRGAKWC", "soluble on expression in E. coli": "not soluble"},
      {"sequence": "MFKTIDTNQKDVKLTVFSSDEKSFMVTATLVEKAGHAFLINSKFTQSDSKEIVEYLKKNNLSLDKIFIIHGDPDYYFGLESIKAVYPEAIAYATESTVEHIVHSVLGKLKVWKDALGENAPSNVVLPQVFKEKAIDFQGLTFELVGLEHYRTSLFNKELKVLIGGIDVFNEIHVFLADTSSKAAMEAWIENLKVLQALHADIIVPSHGSIEKSLNNQALTATMDYLRTAVQASEESGTSKDFVAKLEAAYPDYANKGVLELSAKVVTKEMPWGLEHHHHHH", "soluble on expression in E. coli": "soluble"},
      {"sequence": "MGLTFENNTIENFDVQATFGMMNFLEVVAINERDGENNVTEEVREQRVTVYSSKLNDQVEIVIDPDYDVSGINYDDEIELTGNVTARGWLYTFKGYNDNVQTEQAFKVRAAGIKKVGAVKQTQAPQPKEKQENKQ", "soluble on expression in E. coli": "not soluble"},
      {"sequence": "MHKKLNPKSMKRENKKMVLRYLIESGPHSRVEIARKTGLAQSAIWRIIEELVNEGLVEEKGTATGRRRKAVTYGPTRSFITSIIYNVEVLETLVAVGFLDGAWRIIERFSTPKDFDEFKQRVTSSYENILKSHVLNKNISKVVFSLPGIVNTESKFLIHAPNLGWRNIDFRREFGNLDLEVLVENDSNLSLLAEEFFSQDVKESDVAFFLYFGEGIGGAISVNGKIVRGENFAAGEIGHVVLDVKNGKEVEEFLSISKLVERMEKFVELQGESLDEKFRYIKRLWFSGEKNVKETMEEFLQHVAVVLKNIIYFLNPGVIVLGGVVNDLWDTFGSFIKRELEKITDREIANVLIRDTIFKEISPSLVGGNVLAIEEFLRQIT", "soluble on expression in E. coli": "not soluble"},
      {"sequence": "MSLDDLQSIRESREIRIAMSGQYSPFSFANEQNQIVGFDASISEALAQRLGVKVSIVTTPFDGIIAGLLAKKYDAIIASMTITPERLRAVDFVGPYYHAGRTIVVKEDSPINSLADLKDVTVGVTLGDAHDKWARARGNLKVKTYKGLPEMLVDLEAGRLDALVMDSVPVLVAVKETGQKVRIITPPDSDGGVEGMGIALRKNNPELKAAMQQALNDMLADGSYEKISMKWIGKDIREGHHHHHH", "soluble on expression in E. coli": "soluble"},
      {"sequence": "MTYVDGFVLPVPEGKIDAYRQMAESAGKIWMEHGALQYKECVLEDAKPEMPEDAPETCKITPFGKLAGTKDGETVIFAFIVYKSREHRDEVNKKVMADPRMQEACDENNMPFDPSRMAYGGFKALVDL", "soluble on expression in E. coli": "not soluble"},
      {"sequence": "DSSALPTKRKTVKLFWRELKLAGGHGVSASRFGPCATLWASLDPVSVDTARLEHLFESRAKEVLPSKKAGEGRRTMTTVLDPKRSNAINIGLTTLPPVHVIKAALLNFDEFAVSKDGIEKLLTMMPTEEERQKIEEAQLANPDIPLGPAENFLMTLASIGGLAARLQLWAFKLDYDSMEREIAEPLFDLKVGMEQLVQNATFRCILATLLAVGNFLNGSQSSGFELSYLEKVSEVKDTVRRQSLLHHLCSLVLQTRPESSDLYSEIPALTRCAKVD", "soluble on expression in E. coli": "not soluble"},
      {"sequence": "MSTSSRTPSPSSLSACGGPSSSTTTAHPSSSPKSKTSVTSSRSDTDSVIPEHKPSSASSFSIGRLLFRSSGSSNSTKRDSVDSGKDDETGRSPATSRPGSPNPGGDKSPQMSTSRRLAGFASRSIRKSQWRLFKHRTFFGSQRSSMKKNQLQLPRLTLRHPSIDSSAMPLQLDVDENASGEGSDDFLQIRRSTQRRWTDSDTTGRLRDSRDSSDFNDSHDTLDIAGTSAHGVADSSSHHHHNYSMTAPVSPNVPLSASSSHSEGWKYSSQKLLWKLKPKYAYSHASSTSSSTDSAWKSLDSMTWRSVDGAEVVLRGARLENLSEIERSALQLLAAQRLTKMLPGVNLGKPKALRQKRQKLVKSNRTPTVADVQRRASGTPMPEEKRVFGVSLAMCMLNEKRLDQESRCRSLDDSTVIMLNKSKAKPTKSEPEMMSHTMPEDRKWLYPSTQNLYPTSTSNPSSPSPIMGSAPPTGSILPSANLLSAEPTTCEPQQVTGRFLKKQRPASASFSCSLDANIDDVDPHALQVPKIVENCTQYLMTYGLTQVGLFRVAGNTKRCRQLRNALEKVGGGAVINDNMVENTTSHDVATLLKEYFRDLPQSLLPGEHYSAYIGAAKLNVDERIEAIRLLFALLVSPILDTLFVLLKFLHEVSCHSQDRHDEDGELLSGNKMDARNLATIFAPSILRVDHDKLHETLAENEHQVIIVETMISNVEEIFKIPKELQCKIYTKLRETEPDRLDRILNHLSKMDSHESHPGVLLSPFPATLEEDSSPRHHRHGDHSHIGRQSPLARELTTNGKVKVQSQRSGSWPFSLTKTQTSPSRPEGQHFFPADSQDGPGPSHSHHDPSTSGTTMSATTTPGPGRKTDFSMKAADDSGRDSEFCSDELTFGTISQPETARERSVTMSTACGSPSTSNSKKTPMMASLQGATTSKSVDARSPSRERVDIRSAARSSAAAARRRLRNVVRAFRFTSMTRSTPDIAQSS", "soluble on expression in E. coli": "not soluble"},
      {"sequence": "MGLCISKHSGSSYSYSDRDHWEVPVNPSNVRAVSSHQTASASDRASDKVDERPATFSHFQLARCGEDYTLSMVSLAAYQAERRHRGNLIKDRSQSALPWVQVYHSETGLNYSFQIDRTTTVKVAGFNYNVPNDGKTRHLYSAGTSQVNMPVIADNMSACIAVACAAENVDAGTG", "soluble on expression in E. coli": "not soluble"},
      {"sequence": "FTPVTKAAVINTFDGVADYLIRYKRLPNDYITKSQASALGWVASKGDLAEVAPGKSIGGDVFSNREGRLPSAGSRTWREADINYVSGFRNADRLVYSSDWLIYKTTDHYATFTRIR", "soluble on expression in E. coli": "soluble"},
      {"sequence": "MQWSKEEEAAARKKVKENSAVRVLLEEQVKYEREASKYWDTFYKIHKNKFFKDRNWLLREFPEILPVDQKPEEKARESSWDHVKTSATNRFSRMHCPTVPDEKNHYEKSSGSSEGQSKTESDFSNLDSEKHKKGPMETGLFPGSNATFRILEVGCGAGNSVFPILNTLENSPESFLYCCDFASGAVELVKSHSSYRATQCFAFVHDVCDDGLPYPFPDGILDVILLVFVLSSIHPDRTLFI", "soluble on expression in E. coli": "soluble"},
      {"sequence": "GAMGSYDWLPRLSKENFNAAPVTCFPHAPGCEVWDNLGVGMKVEVENTDCDSIEVIQPGQTPTSFWVATILEIKGYKALMSYEGFDTDSHDFWVNLCNAEVHSVGWCATRGKPLIPPRTIEHKYKDWKDFLVGRLSGARTLPSNFYNKINDSLQSRFRLGLNLECVDKDRISQVRLATVTKIVGDRLFLRYFDSDDGFWCHEDSPIIHPVGWATTVGHNLAAPQDYLERMLAGREAMIEVHEDDATIELFKMNFTFDEYYSDGKTNSFVEGMKLEAVDPLNLSSICPATVMAVLKFGYMMIRIDSYQPDASGSDWFCYHEKSPCIFPAGFCSVNNISVTPPNGYDSRTFTWEGYLSDTGAVAAGQHLFHDIIPDHGFEVGMSLECADLMDPRLVCVATVARVVGRLLKVHFDGWTDEYDQWLDCESADIYPVGWCVLVNHKLEGPPR", "soluble on expression in E. coli": "soluble"},
      {"sequence": "MSLKAIQFDLSIPKYALSKAMGKMNSSLYVESPFSCLQLRDVEKPALPNDHWVEIKVKYGGICGSDLNLIFLNDSPATSPFVSFPFTLGHEMVGTISKARKSVTNLQVGQRVVIDPLLSCEVRGITPVCSECANGNYNLCHHMNDGDIAPGLLTGTCKDTGGSWGRYLVAHQSQVISLPSSVDDDNGVLVEPFACALHAVLQNRPKPSDTVFVIGSGVIGICVIAAIRALEIPCKIVTLAKHPFQAELAKQFGADEIVFLSRKRDYVTAVAESFNANVLHPVFGEPIVHGGADIVYECVGNRKSLHDSLRFARKGGKVVLIGLASFIDNLDMTMIWLNELEVKGSFTYGMEDWQGGKKRTLQIAVDLIADGKVDLSPLITHRFPLEAYREALATAANKKKGQTMKVVFEEGHHHHHH", "soluble on expression in E. coli": "not soluble"},
      {"sequence": "MPVLALRLTALAALVISVSGCVMEAYGSRARSDAQSWIGLPIQDVIKRFGEPERVTGDAARQKYVWKEYENYSHDYDYTYYEQGHGNTPNSSVLNQKTGTANQSGYYTCIYEFFADASGRVVDATARGECR", "soluble on expression in E. coli": "not soluble"},
      {"sequence": "MNPNTVPTPARGAIRWEAHTCLPLLPNQDMSALLRYRDNGFHHVSVNVGMDMTAVGDVMQVIAGFRQWLIKHPENFMLAGTLADLQRARVQDKLAVSFDLEGSNMLLQDQAMVRLYADLGVRQMLLAYNLDNSCAGGCHGSGMGLTALGREFVGAINSAGIVMDCSHASKRASMEIIELSQRPVVFSHTNIKAVYDHPRTVDDEQIMACVESGGVIGLTGMGIFLGDPQASVEAFVRQIDYLAERAGTAHIGLGLDIELHPDDKDLAEGVNEDDWWPKEFYGGINGHRQLQPEALGQVAEALLRIGYDAAQINGIFGGNFMRVAQATWP", "soluble on expression in E. coli": "not soluble"},
      {"sequence": "RVAGSAIDYWRAGILGKRRVRVENHIVLLGWNGSRTMHLIRMLQHEEEGKRPIVLCSRSDIENPLPGEIHFIKVTSYTDAQEMKNANITDASCIIVDNLSDDITLSAALYCASVNPDAHLLAYFKDDALGRLLSQHCPKAECIPAVGAEMLAKAAVDPGSSALHQELLASTRGMTQYSVIYPENQPITTIESIFGFIKKRHHATLIAFDIGNGIQLNPDLDAEVPPGTKLFYIADERIDDFAWKEMNKEQ", "soluble on expression in E. coli": "not soluble"},
      {"sequence": "MSLTSQVSSTTEQADEPVVGEQRKPAGAKDVRRLDRVIIRFAGDSGDGMQLTGDRFTSETASFGNDLSTLPNFPAEIRAPAGTLPGVSSFQLHFADHDILTPGDAPNVLVAMNPAALKANVSDLPRGAEVIVNTDEFTKRAMQKVGYGTSPLEDGSLDGYSVHPVPLTTLTVEALKEFELSRKEAERSKNMFALGLLSWMYHRPTEGTEKFLTTKFAKKPAIAAANIAAFRAGWNFGETTEDFAVSYEVAPAQSAFPAGTYRNISGNLALSYGLIAASRQADLPLYLGSYPITPASDILHELSKHKNFGVRTFQAEDEIAGIGAALGAAFGGSLAVTTTSGPGVALKSETIGLAVSLELPLLVVDIQRGGPSTGLPTKTEQADLLQAMYGRNGEAPVPVVAPRTPADCFEAAIEAARIALTYRTPVFLLSDGYLANGSEPWRIPETDGLPDLRVRFAQGPNHTLDDGTEVFWPYKRDPGTLARPWAIPGTPGLEHRIGGIEKQDGTGNISYDPANHDFMVRTRQAKIDGIDVPDIEVDDPDGASALVLGWGSTYGPITAAVRRLRTAGESIAQAHLRHLNPFPSNLGAVLKGYDKVVIPEMNLGQLATLIRAKYLVDAHSYNQVNGMPFKAEQLATALKEAIDEGHHHHHH", "soluble on expression in E. coli": "not soluble"},
      {"sequence": "MCLARSISRRENYKPLKSKVMTKRNVGRPPKNERADHCCMVRFTDTEFARFLTLFEQSGLQNRAAFIKARVFNETFRVIKVDRSLLDYYQKLTTLYGQFRSVGVNYNQTVVALKSNFTEKKAFAMLTKLEKLTLELAIIGGEIVQLTRKFQEKWQHRQ", "soluble on expression in E. coli": "not soluble"},
      {"sequence": "MGSDKIHHHHHHMKPIIIFFSLFLIPLFADDLKSGFGEEYYKLDIDQKRQIFFIKMNEMFDQSFKKIEQERAFIEAFFKDAYKTGFRTSNQINLEKLITIKNKYRIENLYDFAEYKKRIQKIPKSMGIAQALVESATGTSRFAREANNLFGEWTWGEKGLIPDLRHPDKKHKIKIFDSLQDSVDSYVLNLNRHFAYEKFRDARAKFESEGKEITGLEAIKTLDSYSERKGYYINLITKIIKRYNLEKYDTNSNNT", "soluble on expression in E. coli": "not soluble"},
      {"sequence": "GMRVDKHEVRVGELAAGQPLSLPVYRFKGKGAGPSVYIQANVHGAEVQGNAVIYQLMKLLEHYELLGDISLVPLANPLGINQKSGEFTLGRFDPITGVNWNREYLDHGFNIEVWYQEHSHLDDDTLITAFRATLVEECARRLNNPWGVTTGHRLAVTLQSMAHRADIVLDLHTGPKSCKHLYCPEYERSAAQYFSIPYTLLIPNSFGGAMDEAAFVPWWTLAEVASSHGRELGVRVSALTLELGSQERIDLDDALEDAEGILAYLSHRGVIAETVLPKPMKRYGCFLKNYRKFHAPKAGMVEYLGKVGVPMKATDPLVNLLRLDLYGTGEELTVLRLPEDGVPILHFASASVHQGTELYKVMTKVFEL", "soluble on expression in E. coli": "soluble"}
    ]}
  ]
}
